According to the domain aggregation screens of Martell et al. (2025):

Assay: soluble fraction after stress (log2 fold change); higher = more stays soluble; pooled small domains, quantitative proteomics
Conditions: stress: 75 degC
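Note: 20 min heating vs room temperature control held 20 min.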

| Sequence | soluble fraction (log2) |
| --- | --- |
| HMVDKNDLTAIDGIGPFLEKKLNDVGVFTYADIAGWDAAKIEEITQQISFFEGRIEKDDWVGQAQKLIDDQ | -0.124 |
| HMVDKSYIHNQQVASDTWTVQHNLGKYPAVSVADTGNNEVYGDVRHINENTVELKFSHPFSGVAFF | 0.61 |
| HMVDKTMYDRYAVDDYVRVIDGPLVGTEGRIIELDRETGNVKIEAVFFGRVTTADINFALIEKVD | -0.717 |
| HMVDLDIENYELEDILNLFRLQYNFVEADLKRAYRMALKLHPDKSGLDGEYFRFYMKAYKIVENIFNFRNR | -1.5 |
| HMVDSVIGSVGRVTVDIDNVEALGQVKLGGMEWSARSTSGDPIPAGTEVRVDRVEGVKVFVTPV | -0.117 |
| HMVDVEMLTTVSDHIEAKLLQGILENHGIPSYSVDEESGEYMRVYMGYSIFGEKIYVRASDLLAAQGYL | -2.23 |
| HMVDWTFPVLVKDVVMMGRYGHMGFLRIPGKKDFESVDNALAKVGMVEYAKQQIGELSGGQR | -0.019 |
| HMVDYSMEDSVWNNKKEHVNEWFDANPEHEGRRVIVDGLFAIGDAQPDLRKRHWSSISVVFADLDNSPIG | -0.327 |
| HMVEDPADNQKAADAVIKKISEIGEVTESSENLIKEARASYDALTDNQKELVTNYDVLVQAEAQLENIKD | 0.282 |
| HMVEEVDYGTFMRMIEEKNIGKVEVRAGEIVFTDKDEKQIYKTGAMEDATLTQRLYESGAEFSKDV | -0.0507 |
| HMVEGVSLVEIYVDENSKYNGKLLSEIPKKENTLVIMIQRGEQVIIPHGNIRLESGDMLVVSKTEI | -2.71 |
| HMVEKNALSEEIEGYVNKYGKDRSSLMPVLQAIQRKHSYINDFAQQEVARLLDIHPVEVFSVISFYSFLH | -2.21 |
| HMVEKRLFPQISDAGKRLDLFLAGALAISRTMVVKIIKDGGVLVNGKAAKASYRLAGDEELLVSYEEP | -3.48 |
| HMVEMPEVGVKVRIEVESHNGSTNFEGIVLHPASKGHLTLKLINGYNASYLIEEIRNLEIIDSS | -1.64 |
| HMVENATPEEREALNDIAMEAMGMVKDGKPTSAREFVQSQNLDNDQKILLWSLLDAPTRSALKTAEK | 0.373 |
| HMVEPIKAPMPGMVLKILVEPGQQIEKGQGVLILEAMKMENVLKSSAAATVKSIKVSEKSAVEKGAILVEL | -0.463 |
| HMVEQVEISILPGEYSDTISQKLLDAGLIDDKAAFSKYINDTNVDNLIQPGTFTVPKGASYEEVAKILT | 0.214 |
| HMVERRVRFTVAPGNAGLRLDLFLTAREIGLSRTQVGRAVDEGQIQVNGRPGRAGRKLKTGDVVAIVLPA | -1.13 |
| HMVESLTDRELQILSLAAKGYTNKAIAVQLGISDRTVQNHLANTFQKLNAESRTEAVMRAVSLGLISA | -0.542 |

| Sequence | soluble fraction (log2) |
| --- | --- |
| HMVETVQVVGAGQDIMPGSRINYSSLHYITVPRSYFHEDMFAKNNLVVGRIARAYVAKGEPLLAASLMPK | -2.29 |
| HMVEVPYSEFLKELDAGNVKDVYVSNGESQIQFTKKDQKQWNLSYKTGPIPGDDLVKRLQNADVENFT | 0.109 |
| HMVEVTTDEITRPGAMVSGSVTFSDGVKAIWLIDEYGRPGLEPETPGYQPSESDLSEFEKHLRALLQ | 0.362 |
| HMVEVVDAEKLEERLSKVFSAAVLLEIYNENPAHGKEYAYLFTARKNAVEEMIENGQMKRETWEAK | -0.987 |
| HMVFSKEELLFNSDSLLSLYPNDNKLLETILSEKIDHAVKNNDMSMYKEILVIDPKNPLANYHLLM | 0.354 |
| HMVFTEEERAEYREKMLDAGFDLLKQYGMTHMSVAKITEAAGIGVSTFYNFFSSKEEYVYEVLQYRRRK | -1.3 |
| HMVGIVQKTFEPTGIAAEELMKTLKSDKSLDFGNVQILATPKSSTSRQVVVVSGRANDVDRVMMVLSNLDS | -0.326 |
| HMVGKIVVPHLEGKPAEMARDILARDGFKSVHEEVLPSAEFGAGRVVRTEPHAGTNVAKTDPVTIFVSVGL | -0.268 |
| HMVGLTDLQRNVLVQIARGKSRQLISRTLKVTPAEISAALKVAQRRYRVASSTEVIVQALYDKTLSFHEIM | -0.707 |
| HMVIIPNILNKYKGLAFRQLEQVGLKIGDTIYEPNIQRDAVLRMQINGRSVQPGDQVMRFSVVDLVIG | -3.2 |
| HMVINKRELNVLSIYSRGSEKRAIILFPTGQTKLVKVGDTLNGGRVAAIGTTEIRYIKGGNNLVLKIPQ | -2.75 |
| HMVINVNEIIRRIKELKTFKTDRQVADFLGVSKATVSNWMARNSIDFPLLINKLDGVDLTWLLTGRGTPE | -2.15 |
| HMVIPATPTARRAKIAGLLADRSVRSQGELLTLLADAGIEVTQATLSRDLEALGAVKVRDGRGLVYAVPG | -0.32 |
| HMVIQRQIPPLVTRMLDGLEQFIQLDMPFDLDTRLGNIEAVRANMDRSDVTSAEAYRQVLELYSIELQ | -0.559 |
| HMVISLREINLIGVYGRPNARRALVRLSNGRYVRVEVGSDLDGGKVTAIGDEALNFVKRGRTYAIQLPA | -1.11 |
| HMVITPESVKEQVLAIISKSPAQGFNYKQISKRLNINDPSERKMVSDILRELSESGTIEEINKGKYRAKV | 0.186 |
| HMVKDYIQVTVNKEPVILKGKKDYIFIDIFNYIEFDLTIPKGSLYLLLNGKNAGYHDKLLDGDVIELGW | -2.17 |
| HMVKLDDLTGQDKASAEAAISNLGLKYSEQQEYSDEIEEGKVTRTDPGAGSTSLKAGDTVTVYISRGPE | 0.905 |
| HMVKLSATVKELLDFVIAKKTVTSSNVSKHFDISAQNASGRLKKLHATGLVLGQKEVAESGGLEFVYRS | -0.132 |
